Bridges are numbered along the chain shown (N, C = ends). Where no end group is shown, it is not given here. 99mTc‑Chelate II = tetraamine chelate labelled with 99mTc, on the N-terminus
Columns and labels:
[1] = target: collagen type I (Homo sapiens, UniProt P02452+P08123); test: In vitro binding to collagen type I coated plate
Method: A Maxisorp plate was incubated overnight at 4° C. with 50 μL or 100 μL 0.1 mg/mL collagen type I. All solutions were removed from the wells using a pipette. Wells were washed twice with 200 μL PBS, and then incubated with 150 μL PBS containing 0.1% BSA for 30 minutes at room temperature. Wells were washed five times with 200 μL PBS, and then 90 μL PBS was added to each well. 10 μL of neat (and two-fold serially diluted in PBS) Imaging Agent 1 was added to the wells in quadruplicate. The plate was sealed and incubated for 1 hour at 37° C.
The wells were washed seven times with ice-cold PBS (200 μL); and then the wells were transferred to a glass vial and counted (measured) for ^99mTc-activity using a Wallac counter for a 60 s count for each sample.
FIG. 1 illustrates binding of Imaging Agent 1 to collagen type I coated wells from one experiment.

[2] = target: collagen type I; test: saturation binding of 99mTc-labelled peptide to collagen type I coated Maxisorp wells, one-site hyperbola fit

Sequence of collagen type I (Homo sapiens, UniProt P02452+P08123) (P02452 162-1218 limits assumed): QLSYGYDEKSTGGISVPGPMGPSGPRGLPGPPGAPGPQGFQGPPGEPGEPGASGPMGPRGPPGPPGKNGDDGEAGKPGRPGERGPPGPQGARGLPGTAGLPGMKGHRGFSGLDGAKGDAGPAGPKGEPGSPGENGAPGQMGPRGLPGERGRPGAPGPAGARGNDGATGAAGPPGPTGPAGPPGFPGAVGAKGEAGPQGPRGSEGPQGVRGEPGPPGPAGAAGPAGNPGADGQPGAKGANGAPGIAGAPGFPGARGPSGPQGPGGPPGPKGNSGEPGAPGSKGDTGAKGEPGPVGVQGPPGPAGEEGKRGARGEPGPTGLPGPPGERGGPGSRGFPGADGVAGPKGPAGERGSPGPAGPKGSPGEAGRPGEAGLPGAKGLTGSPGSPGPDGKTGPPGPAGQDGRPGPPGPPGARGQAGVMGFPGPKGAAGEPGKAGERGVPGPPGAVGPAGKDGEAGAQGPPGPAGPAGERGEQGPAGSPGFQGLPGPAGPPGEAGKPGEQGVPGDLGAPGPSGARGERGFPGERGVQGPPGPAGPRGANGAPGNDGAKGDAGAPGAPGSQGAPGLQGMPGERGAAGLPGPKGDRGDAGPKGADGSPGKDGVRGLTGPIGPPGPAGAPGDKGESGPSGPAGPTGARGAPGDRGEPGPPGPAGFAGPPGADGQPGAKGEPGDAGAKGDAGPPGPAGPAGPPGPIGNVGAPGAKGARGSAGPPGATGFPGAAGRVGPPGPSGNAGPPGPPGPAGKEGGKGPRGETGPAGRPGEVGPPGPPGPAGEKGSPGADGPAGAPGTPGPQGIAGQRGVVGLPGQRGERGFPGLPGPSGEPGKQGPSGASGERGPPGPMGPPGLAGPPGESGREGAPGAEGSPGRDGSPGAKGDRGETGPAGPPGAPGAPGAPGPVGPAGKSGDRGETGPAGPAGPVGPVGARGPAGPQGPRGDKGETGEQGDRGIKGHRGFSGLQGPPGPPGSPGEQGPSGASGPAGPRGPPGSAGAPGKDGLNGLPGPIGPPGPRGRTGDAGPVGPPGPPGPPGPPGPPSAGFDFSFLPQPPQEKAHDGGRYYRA
Sequence of collagen type I (Homo sapiens, UniProt P02452+P08123) (P08123 80-1119 limits assumed): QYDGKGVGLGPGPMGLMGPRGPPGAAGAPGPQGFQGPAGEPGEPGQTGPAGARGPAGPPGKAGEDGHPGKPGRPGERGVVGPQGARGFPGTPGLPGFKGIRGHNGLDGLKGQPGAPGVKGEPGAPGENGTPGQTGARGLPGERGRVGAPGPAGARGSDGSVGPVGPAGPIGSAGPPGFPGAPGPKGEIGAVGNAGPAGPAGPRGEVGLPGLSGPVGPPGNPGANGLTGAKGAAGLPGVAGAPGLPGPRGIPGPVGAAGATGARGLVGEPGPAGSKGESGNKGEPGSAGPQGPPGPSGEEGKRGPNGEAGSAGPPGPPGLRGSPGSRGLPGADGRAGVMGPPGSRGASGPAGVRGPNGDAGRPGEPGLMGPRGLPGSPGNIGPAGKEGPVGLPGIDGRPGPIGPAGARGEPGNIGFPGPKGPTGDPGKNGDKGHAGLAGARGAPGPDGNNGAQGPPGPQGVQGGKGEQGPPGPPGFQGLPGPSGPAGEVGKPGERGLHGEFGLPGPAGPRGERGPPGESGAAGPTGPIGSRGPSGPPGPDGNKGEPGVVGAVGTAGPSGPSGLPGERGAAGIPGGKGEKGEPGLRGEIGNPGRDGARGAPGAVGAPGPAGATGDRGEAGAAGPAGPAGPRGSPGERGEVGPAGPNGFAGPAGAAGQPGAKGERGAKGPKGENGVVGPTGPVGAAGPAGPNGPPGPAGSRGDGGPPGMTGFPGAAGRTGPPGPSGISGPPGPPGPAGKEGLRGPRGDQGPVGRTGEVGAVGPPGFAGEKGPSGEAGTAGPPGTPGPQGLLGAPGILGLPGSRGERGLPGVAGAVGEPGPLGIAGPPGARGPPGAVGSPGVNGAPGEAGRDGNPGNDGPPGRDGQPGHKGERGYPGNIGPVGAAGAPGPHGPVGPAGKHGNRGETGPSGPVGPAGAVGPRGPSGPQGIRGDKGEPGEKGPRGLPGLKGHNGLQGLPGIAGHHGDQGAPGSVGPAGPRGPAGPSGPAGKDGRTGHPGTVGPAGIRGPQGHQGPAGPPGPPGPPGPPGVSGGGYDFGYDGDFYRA

Row | Bmax [2] [attomoles] | Kd [2] [nM] | Molecule | binding to collagen in vitro [1]
1 |  |  | ^123I-labelled KELNVLYT-NH2 (also: 123I-labelled) [Imaging Agent 35] | bind with high affinity to collagen in vitro
2 |  |  | ^123I-labelled Ac-CKELNVLYTC-NH2 (disulfide 1-10; also: 123I-labelled) [Imaging Agent 36] | bind with high affinity to collagen in vitro
3 |  |  | ^123I-labelled Ac-KELNLVYT-NH2 (also: 123I-labelled) [Imaging Agent 29] | bind with high affinity to collagen in vitro
4 | 1070 | 194 | {99mTc‑Chelate II}-ANAALKAGELYKCILY-NH2 (also: 99mTc complex) [Imaging Agent 1: [99mTc-Chelate II]-…-NH2] | 

Reference: patent US8304388B2, “Imaging agents” (GE Healthcare Limited, priority 2006, dated 2012)
